{"source": "patent US6407207B1", "about": "“Cloned and expressed human bradykinin BK-2 receptor” (Merck & Co., Inc., priority 1992, dated 2002)", "key": {"[1]": {"target": "T1, human BK-2 receptor (Homo sapiens, UniProt P30411)", "T1 construct": "permitted the construction of a cDNA clone encoding a full length BK-2 receptor from the cleavage fragments of the two clones; expressed in transfected cells; host or cells: COS-7 cells, vector pcDNA I-Neo, membranes", "T1 sequence (P30411 1-364 isoform P30411-2)": "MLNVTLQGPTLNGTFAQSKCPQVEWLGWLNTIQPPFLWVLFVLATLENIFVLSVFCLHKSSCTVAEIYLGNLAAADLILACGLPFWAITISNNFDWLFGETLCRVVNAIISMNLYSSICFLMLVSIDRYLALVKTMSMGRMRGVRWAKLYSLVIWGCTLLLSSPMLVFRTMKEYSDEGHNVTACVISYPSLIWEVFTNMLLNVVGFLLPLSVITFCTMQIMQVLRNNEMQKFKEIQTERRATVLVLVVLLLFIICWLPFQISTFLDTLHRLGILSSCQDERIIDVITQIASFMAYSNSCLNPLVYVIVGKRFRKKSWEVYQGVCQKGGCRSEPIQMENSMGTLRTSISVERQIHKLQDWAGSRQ", "assay": "Competition binding against 100 pM [3H]BK, membranes of COS-7 cells expressing the cloned receptor", "conditions": "for IC50: competition with [3H]BK, read-out: IC50, displacement of [3H]BK binding; for Inhibition of BK binding: at a concentration of 10 uM", "procedure": "(§1) Cells are then harvested after 72 hours and the membranes containing the expressed receptor protein are prepared by scraping the cells in phosphate buffered saline solution and centrifuging for ten minutes at 500×g. The cell pellet is then resuspended and homogenized with a Polytron in 20 mM N-tris(hydroxymethyl)methyl-2-aminoethane sulfonic acid (TES, pH 6.8 at room temperature) buffer containing 1 mM 1,10 phenanthroline. The homogenate is then centrifuged for ten minutes at […]. The final membrane pellet is resuspended in assay buffer (TES plus 0.1% protease free bovine serum albumin, 5 uM MK-422 (enalaprilat; Gross et al., J. Pharmacol. and Exper. Ther. 216, 552-557 (1981)) and 140 ug/ml bacitracin using a motor-driven teflon-glass tissue homogenizer. Protein determination are performed by the method of Bradford using bovine IgG as the standard. See Bradford, M. A. Anal. Biochem. 72, 248-254 (1976).\n(§2) Binding assays are then performed to determine receptor antagonist or agonist interaction. The assays utilized in the instant invention follow the method of Manning et al., J. Pharmacol. Exp. Ther., 237, 504-512 (1986). […] (BRANDEL, Gaithersburg, Md.). The tubes are then rinsed two times with 4 ml ice-cold 10 uM TES and the filter bound radioactivity is quantitated by liquid scintillation counting. […] The competition and saturation experiments are analyzed using the EBDA program of McPherson. See McPherson, G. A. J Pharmacol. Methods 14, 213-218 (1985).\nas §1, with “Cells were” for “Cells are”, “protein were” for “protein are”, “pellet was” for “pellet is”, “homogenate was” for “homogenate is”, “al., 1981)” for “al., J. Pharmacol. and Exper. Ther. 216, 552-557 (1981))”, “determination was” for “determination are”\nas §2, with “assays were” for “assays are”, “tubes were” for “tubes are then”, “[…]” for “uM TES”, “radioactivity was” for “radioactivity is”, “experiments were” for “experiments are”"}, "[2]": {"target": "T2, B2 receptors (Homo sapiens, UniProt P30411)", "T2 sequence (P30411 1-391)": "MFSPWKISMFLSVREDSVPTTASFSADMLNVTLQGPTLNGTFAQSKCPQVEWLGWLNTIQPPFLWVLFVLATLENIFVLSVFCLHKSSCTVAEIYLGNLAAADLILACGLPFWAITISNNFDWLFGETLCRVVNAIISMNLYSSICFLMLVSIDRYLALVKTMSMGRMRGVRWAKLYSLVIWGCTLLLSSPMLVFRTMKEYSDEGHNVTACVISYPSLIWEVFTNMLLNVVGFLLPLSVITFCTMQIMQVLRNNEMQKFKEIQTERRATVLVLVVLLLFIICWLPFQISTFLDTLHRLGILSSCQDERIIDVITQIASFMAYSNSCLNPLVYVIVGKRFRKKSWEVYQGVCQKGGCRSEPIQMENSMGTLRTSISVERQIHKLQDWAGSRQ", "conditions": "cited from earlier work"}, "[3]": {"tested_on": "rat vas deferens", "conditions": "cited from earlier work"}, "[4]": {"target": "T3, human bradykinin BK-2 receptor protein (human, UniProt P30411 28-391)", "T3 construct": "also called human BK-2 bradykinin receptor; cloned BK receptor", "T3 sequence": "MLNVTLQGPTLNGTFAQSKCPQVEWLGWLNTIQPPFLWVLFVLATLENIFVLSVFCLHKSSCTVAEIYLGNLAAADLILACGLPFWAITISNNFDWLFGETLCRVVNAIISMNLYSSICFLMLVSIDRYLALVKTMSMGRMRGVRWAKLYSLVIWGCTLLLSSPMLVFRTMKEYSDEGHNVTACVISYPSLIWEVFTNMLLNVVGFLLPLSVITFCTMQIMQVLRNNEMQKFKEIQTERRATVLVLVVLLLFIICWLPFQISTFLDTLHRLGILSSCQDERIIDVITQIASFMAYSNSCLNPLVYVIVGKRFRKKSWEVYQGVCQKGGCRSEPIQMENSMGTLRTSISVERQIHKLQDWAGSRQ", "assay": "competition binding with 100 pM [3H]BK, membranes of COS-7 cells expressing the receptor", "procedure": "as §2, with “*J.” for “J.”, “Ther.*,” for “Ther.,”, “504–512” for “504-512”, “*J” for “J”, “Methods*” for “Methods”, “213–218” for “213-218”\n(§3) Binding assays were then performed to determine receptor antagonist or agonist interaction. The assays utilized in the instant invention follow the method of Manning et al., *J. Pharmacol. Exp. Ther.*, 237, 504–512 (1986). […] (BRANDEL, Gaithersburg, Md.). The tubes were rinsed two times with 4 ml ice-cold 10 uM TEX and the filter bound radioactivity was quantitated by liquid scintillation counting. […] The competition and saturation experiments were analyzed using the EBDA program of McPherson. See McPherson, G. A. *J Pharmacol. Methods* 14, 213–218 (1985)."}, "[5]": {"target": "T3, human bradykinin BK-2 receptor protein", "assay": "competition binding with 100 pM [3H]BK, cloned human BK-2 receptor in membranes", "procedure": "as §3, with “assays are” for “assays were”, “tubes are then” for “tubes were”, “[…]” for “uM TEX”, “radioactivity is” for “radioactivity was”, “experiments are” for “experiments were”\nas §3"}, "[6]": {"target": "T4, human bradykinin BK-2 receptor protein (human), P30411", "T4 chain": "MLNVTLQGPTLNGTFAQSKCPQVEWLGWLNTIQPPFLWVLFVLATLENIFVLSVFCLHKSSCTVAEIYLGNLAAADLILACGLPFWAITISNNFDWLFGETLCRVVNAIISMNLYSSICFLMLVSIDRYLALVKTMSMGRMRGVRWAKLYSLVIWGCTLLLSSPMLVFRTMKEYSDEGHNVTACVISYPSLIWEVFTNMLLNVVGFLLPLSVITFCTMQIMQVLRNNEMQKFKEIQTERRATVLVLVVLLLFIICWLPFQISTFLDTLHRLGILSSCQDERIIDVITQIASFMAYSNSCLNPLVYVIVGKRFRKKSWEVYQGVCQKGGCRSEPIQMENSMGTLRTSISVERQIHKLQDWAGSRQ", "assay": "displacement of 100 pM [3H]BK, cloned human BK-2 receptor in membranes"}}, "note": "Where a SMILES comes first, the peptide text is derived from it. Where no end group is shown, it is not given here. [ ]: non-standard residue; d: D form. Hyp = O=C(O)[C@@H]1C[C@@H](O)CN1; 2Thi = N[C@@H](Cc1cccs1)C(=O)O"}
{"molecule": "N=C(N)NCCC[C@@H](N)C(=O)N[C@@H](CCCNC(=N)N)C(=O)N1C[C@H](O)C[C@H]1C(=O)N1C[C@H](O)C[C@H]1C(=O)NCC(=O)N[C@@H](Cc1cccs1)C(=O)N[C@@H](CO)C(=O)N[C@H](Cc1ccccc1)C(=O)N[C@@H](Cc1cccs1)C(=O)N[C@@H](CCCNC(=N)N)C(=O)O", "note": "[D-Arg^0-[Hyp^2,3,-Thi^5,8D-Phe^7]BK] (H-[dR]R[Hyp][Hyp]G[2Thi]S[dF][2Thi]R-OH; N-terminus and C-terminus assumed)", "values": [{"measurement": "IC50", "setting": "[1]", "result": 27, "unit": "nM"}]}
{"molecule": "N=C(N)NCCC[C@H](NC(=O)[C@H](Cc1cccs1)NC(=O)[C@@H](Cc1ccccc1)NC(=O)[C@H](CO)NC(=O)[C@H](Cc1cccs1)NC(=O)CNC(=O)[C@@H]1CCCN1C(=O)[C@@H]1CCCN1C(=O)[C@@H](N)CCCNC(=N)N)C(=O)O", "note": "[[Thi^5,8,D-Phe^7]BK] (H-RPPG[2Thi]S[dF][2Thi]R-OH; N-terminus and C-terminus assumed)", "values": [{"measurement": "IC50", "setting": "[1]", "result": 180, "unit": "nM"}]}
{"molecule": "CC[C@H](C)[C@H](NC(=O)[C@H](CC(=O)O)NC(=O)[C@H](CC(C)C)NC(=O)[C@H](Cc1c[nH]cn1)NC(=O)[C@@H]1CSSC[C@H](N)C(=O)N[C@@H](CO)C(=O)N[C@H]2CSSC[C@H](NC(=O)[C@H](CCC(=O)O)NC(=O)[C@H](CCCCN)NC(=O)[C@H](CC(=O)O)NC(=O)[C@H](CCSC)NC(=O)[C@H](CC(C)C)NC(=O)[C@H](CO)NC(=O)[C@H](CO)NC2=O)C(=O)N[C@@H](C(C)C)C(=O)N[C@@H](Cc2ccc(O)cc2)C(=O)N[C@@H](Cc2ccccc2)C(=O)N1)C(=O)N[C@H](C(=O)N[C@@H](Cc1c[nH]c2ccccc12)C(=O)O)[C@@H](C)CC", "note": "[endothelin]", "values": [{"measurement": "Competition for BK binding", "setting": "[1]", "result": "No competition"}]}
{"molecule": "CC[C@H](C)[C@@H]1NC(=O)[C@H](Cc2ccc(O)cc2)NC(=O)[C@@H](N)CSSC[C@@H](C(=O)N2CCC[C@H]2C(=O)N[C@@H](CC(C)C)C(=O)NCC(N)=O)NC(=O)[C@H](CC(N)=O)NC(=O)[C@H](CCC(N)=O)NC1=O", "note": "[oxytocin]", "values": [{"measurement": "Competition for BK binding", "setting": "[1]", "result": "No competition"}]}
{"molecule": "Des-Arg^9BK (RPPGFSPF) [BK-1 agonist, BK metabolite]", "values": [{"measurement": "Activity at B2 receptors", "setting": "[2]", "result": "inactive"}, {"measurement": "Inhibition of BK binding", "setting": "[1]", "result": 18, "unit": "%"}, {"measurement": "Pre- or postsynaptic BK like responses", "setting": "[3]", "result": "inactive"}]}
{"molecule": "angiotensin I (DRVYIHPFHL) [peptide]", "values": [{"measurement": "Competition for BK binding", "setting": "[1]", "result": "No competition"}]}
{"molecule": "angiotensin II (DRVYIHPF) [peptide]", "values": [{"measurement": "Competition for BK binding", "setting": "[1]", "result": "No competition"}]}
{"molecule": "des-Arg^9-[Leu^8]-BK [Des-Arg^9, LeuBK]", "values": [{"measurement": "Inhibition of BK binding", "setting": "[1]", "result": 11, "unit": "%"}, {"measurement": "Pre- or postsynaptic BK like responses", "setting": "[3]", "result": "inactive"}, {"measurement": "Antagonism of BK responses in the vas deferens", "setting": "[3]; incubation at high concentrations", "result": "failed to antagonize"}]}
{"molecule": "met-lys-BK", "values": [{"measurement": "Specificity of binding of BK analogues (rank order)", "setting": "[1]; competition binding, data not shown", "result": "BK>lys-BK>met-lys-BK"}]}
{"molecule": "MKRPPGFSPFR (It is built from its name (Met-Lys + bradykinin))", "note": "[met-lys-BK]", "values": [{"measurement": "binding result", "setting": "[4]", "result": "binds"}]}
{"molecule": "RRPPGFSPFR (numbered on bradykinin: D-Arg at 0; Hyp at 3; Thi at 5; D-Tic at 7; Oic at 8, Synthetic BK-2 antagonist with non-natural residues)", "note": "[Hoe 140, D-Arg^0-[Hyp^3,Thi^5,D-Tic^7,Oic^8]BK]", "values": [{"measurement": "IC50", "setting": "[5]", "result": 0.065, "unit": "nM"}]}
{"molecule": "[dR]R[Hyp][Hyp]G[2Thi]S[dF][2Thi]R", "note": "[D-Arg^0-[Hyp^2,3,-Thi^5,8D-Phe^7]BK]", "values": [{"measurement": "IC50", "setting": "[6]", "result": 27, "unit": "nM"}]}
{"molecule": "CYIQNCPLG (peptide, UniProt P01178 20-28, looked up)", "note": "[oxytocin]", "values": [{"measurement": "binding result", "setting": "[4]", "result": "no binding"}]}
